Patent publication US20060234906A1, “Structure of a complex of retinoblastoma protein bound to e2f, and uses thereof” (priority 2002, published 2006)
Residues, ends and D or L forms follow the SMILES beside them. *: point of attachment. 5FAM = O=C1OC2(c3ccc(O)cc3Oc3cc(O)ccc32)c2ccc(C(=O)*)cc21

How the values were obtained:
[1] = biological target: T1, pRb (Homo sapiens, UniProt P06400); experiment: Fluorescence polarization titration binding of fluoro-labelled peptides with pRb
T1 sequence (P06400 373-771 limits assumed): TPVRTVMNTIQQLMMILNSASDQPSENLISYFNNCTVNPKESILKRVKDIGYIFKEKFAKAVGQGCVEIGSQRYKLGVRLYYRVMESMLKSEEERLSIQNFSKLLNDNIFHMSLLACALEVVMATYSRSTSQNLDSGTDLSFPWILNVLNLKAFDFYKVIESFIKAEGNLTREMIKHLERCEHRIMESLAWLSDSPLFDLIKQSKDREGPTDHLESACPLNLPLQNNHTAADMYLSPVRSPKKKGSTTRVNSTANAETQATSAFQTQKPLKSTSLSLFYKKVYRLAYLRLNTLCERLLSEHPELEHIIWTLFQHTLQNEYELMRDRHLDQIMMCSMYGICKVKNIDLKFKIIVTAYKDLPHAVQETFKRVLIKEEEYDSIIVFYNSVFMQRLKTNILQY
Source text: Synthetic peptides were synthesised and fluoro-tagged using either N-terminal labelling with 5 carboxyfluorescein succinimidyl ester or cysteine labelling with single isomer tetramethylrhodamine-5-maleimide. […] Fluorescein fluorescence measured at λexcite=485 and λemit=520 nm
Rhodamine fluorescence measured at λexcite=545 and λemit=580 nm
Measurements were made using BMG Fluorostar plate reader fitted with polarization optic. […] Data were fitted to a one site binding model using Graphpad prism.
pRb titration curves were performed in 96-well black plates, in a total reaction volume of 100 μL. Doubling dilutions from 10 μM stock of pRb were made in binding buffer (50 mM Tris HCl, pH7.0, 100 mM NaCl, 10 mM DTT, 0.05% NP-40) and 80 μL added in triplicate to wells. 20 μL of 2 μM fluoro-peptide was added and pipetted up and down to mix. The plate was read after 1 hr incubation at room temperature.

[2] = biological target: T2, RbAB (Homo sapiens, UniProt P06400); experiment: RbAB
T2 construct: residues 372 to 589 of the A domain and 636 to 787 of the B domain; GST (with Prescission protease site) (N, cleaved yes); engineered thrombin site (LVPRGS) at the A-domain end of the A-B linker (C, cleaved yes); engineered thrombin site (LVPRGS) at the B-domain end of the A-B linker (N, cleaved yes); made in house; host or cells: E. coli
T2 sequence (P06400 whole entry, looked up): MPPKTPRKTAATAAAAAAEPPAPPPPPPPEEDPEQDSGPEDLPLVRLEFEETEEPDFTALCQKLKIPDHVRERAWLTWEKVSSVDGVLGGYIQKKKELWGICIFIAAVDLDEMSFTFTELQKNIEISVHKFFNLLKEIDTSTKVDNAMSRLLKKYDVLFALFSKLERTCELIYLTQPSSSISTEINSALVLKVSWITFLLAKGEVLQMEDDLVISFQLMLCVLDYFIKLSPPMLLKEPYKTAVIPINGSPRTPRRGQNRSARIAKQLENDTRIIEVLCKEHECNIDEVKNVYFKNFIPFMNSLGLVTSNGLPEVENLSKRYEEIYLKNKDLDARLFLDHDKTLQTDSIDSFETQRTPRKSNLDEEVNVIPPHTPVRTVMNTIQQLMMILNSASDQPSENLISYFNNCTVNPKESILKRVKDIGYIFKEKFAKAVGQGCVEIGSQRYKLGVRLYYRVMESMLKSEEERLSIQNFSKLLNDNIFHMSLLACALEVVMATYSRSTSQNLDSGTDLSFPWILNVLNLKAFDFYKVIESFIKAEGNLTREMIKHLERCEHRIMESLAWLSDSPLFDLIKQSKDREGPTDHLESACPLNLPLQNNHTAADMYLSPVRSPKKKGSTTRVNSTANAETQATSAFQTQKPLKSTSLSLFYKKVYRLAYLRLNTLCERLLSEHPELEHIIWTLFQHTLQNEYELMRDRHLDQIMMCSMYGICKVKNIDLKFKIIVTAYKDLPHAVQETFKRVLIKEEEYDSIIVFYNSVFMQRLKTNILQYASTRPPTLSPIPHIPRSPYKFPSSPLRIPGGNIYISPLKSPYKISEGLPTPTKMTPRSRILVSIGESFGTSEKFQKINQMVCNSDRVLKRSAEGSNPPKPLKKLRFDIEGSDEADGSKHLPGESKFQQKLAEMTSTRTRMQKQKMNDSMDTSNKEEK
Source text: (§1) Table printed on a drawing sheet, FIG. 2B
(§2) The patent's description of the figure: FIG. 2.
(§3) First copying reader's note: Binding constants of E2F fragments to the Rb constructs RbAB and RbABC; the error is printed in the same cell as the value.
Where the first naming reader finds the target: head: RbAB

[3] = biological target: T3, RbABC (Homo sapiens, UniProt P06400); experiment: RbABC
T3 construct: His6-RbABC (RESIDUES 380-929); made in house; host or cells: E. coli
T3 sequence (P06400 whole entry, looked up): T2 sequence (P06400 whole entry, looked up)
Source text: as §1, §2, §3
Where the first naming reader finds the target: head: RbABC

[4] = biological target: T4, recombinant pRb A/B domains with E2F(409-426) peptide (Homo sapiens, UniProt P06400); experiment: Fluorescence polarization screen (384-well), fluorescein-E2F with pRb, screen controls; type: binding; conditions: 1 μM pRb, 0.4 μM fluorescein-E2F
T4 sequence (P06400 373-771 limits assumed): T1 sequence (P06400 373-771 limits assumed)
Source text: Based on the crystal structure defined by the atomic co-ordinates in Annex 1, an FP screen was configured for the interaction of recombinant pRb A/B domains with E2F(409-426) peptide (see FIG. 1B). In addition, a second peptide binding site E7, see FIG. 1B), distant from the E2F binding pocket, was utilized as an internal control for non-specific inhibitors. Fluorophores in the form of fluorescein and rhodamine labelled peptides were synthesised and were used in a primary screen and hit confirmation.
The assay was optimised in 384-well black-plates (Matrix) and automated using a Beckman Fx liquid handling robot. 1 μM pRb in 50 mM Tris HCl, pH7.0, 100 mM NaCl, 10 mM DTT, 0.05% NP-40 was mixed with 40 μM compound (4% DMSO) and 0.4 μM fluorescein-E2F (final concentrations).
Polarized and depolarized signal from fluorescein-E2F with and without pRb present are shown in FIG. 5 (solid and open circles respectively). Specific disruption of binding by E2F protein and peptide are also shown. […] Addition of unlabelled-E2F at a concentration which gave 50% inhibition is clearly separated from the control populations. Hits were identified as compounds which reduced the polarization signal to less than mean-3sd of the fluorescein-E2F: pRb control.

For `CC(C)C[C@H](NC(=O)[C@H](CCC(N)=O)NC(=O)[C@H](CCC(=O)O)NC(=O)[C@H](Cc1ccc(O)cc1)NC(=O)[C@H](CS)NC(=O)[C@H](Cc1ccc(O)cc1)NC(=O)[C@H](CC(C)C)NC(=O)[C@H](CC(=O)O)NC(=O)c1ccc2c(c1)C(=O)OC21c2ccc(O)cc2Oc2cc(O)ccc21)C(=O)N[C@@H](CC(N)=O)C(=O)O` [Fluorescein-E7, N-terminal amide linkage Scarboxyfluorescein-E7, nonomer] (5FAM-DLYCYEQLN-OH; C-terminus assumed), the Kd [1] was 130 ± 20 nM.

“E2F(380-437): Synthetic peptide of E2F residues 380-437 (ADSLLEHVREDFSGLLPEEFISLSPPHEALDYHFGLEEGEGIRDLFDCDFGDLTPLDF; UniProt Q01094 380-437, looked up, fragment)” showed a Kd [2] of 160 ± 10 nM and a Kd [3] of 100 ± 10 nM.

B1: E2F protein: E2F protein added as screen control that specifically disrupts binding; probably E2F(243-437) (protein, UniProt Q01094 243-437, looked up, fragment)
chain: LAYVTCQDLRSIADPAEQMVMVIKAPPETQLQAVDSSENFQISLKSKQGPIDVFLCPEETVGGISPGKTPSQEVTSEEENRATDSATIVSPPPSSPPSSLTTDPSQSLLSLEQEPLLSRMGSLRAPVDEDRLSPLVAADSLLEHVREDFSGLLPEEFISLSPPHEALDYHFGLEEGEGIRDLFDCDFGDLTPLDF
In the case of B1, the “displacement of Fl-E2F from pRb (screen control)” value [4] is reported as “completely displaces F1-E2F”.
